Reference: patent US20160046724A1 (Novartis, published 2016)

T1: BCMA (recombinant, form not given) (UniProt Q02223 1-54, limits assumed)
T1 construct: also called BCMA substrate; Bio-BCMA
T1 sequence (looked up): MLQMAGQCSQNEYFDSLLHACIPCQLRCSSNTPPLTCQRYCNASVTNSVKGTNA

B1: BCMA-Fc antigen (Fc fusion)
chain: AGQCSQNEYFDSLLHACIPCQLRCSSNTPPLTCQRYCNASVTNSVKG
notes: Bought reagent; also called BCMA fc fusion protein; recombinant BCMA-Fc; not shown: Fc region
B2: BCMA-15 CAR (other)
chain: EVQLVESGGGLVQPGGSLRLSCAVSGFALSNHGMSWVRRAPGKGLEWVSGIVYSGSTYYAASVKGRFTISRDNSRNTLYLQMNSLRPEDTAIYYCSAHGGESDVWGQGTTVTVSSASGGGGSGGRASGGGGSEIVLTQSPGTLSLSPGERATLSCRASQSIGSSSLAWYQQKPGQAPRLLMYGASSRASGIPDRFSGSGSGTDFTLTISRLEPEDFAVYYCQQYAGSPPFTFGQGTKVEIKTTTPAPRPPTPAPTIASQPLSLRPEACRPAAGGAVHTRGLDFACDIYIWAPLAGTCGVLLLSLVITLYCKRGRKKLLYIFKQPFMRPVQTTQEEDGCSCRFPEEEEGGCELRVKFSRSADAPAYKQGQNQLYNELNLGRREEYDVLDKRRGRDPEMGGKPRRKNPQEGLYNELQKDKMAEAYSEIGMKGERRRGKGHDGLYQGLSTATKDTYDALHMQALPPR
notes: also called 139114 Full CAR; PY43-48LB
B3: BCMA-4NP (sample in the affinity and competition assays) (scFv)
scFv: QVQLVQSGAEVKKPGSSVKVSCKASGGTFSNYWMHWVRQAPGQGLEWMGATYRGHSDTYYNQKFKGRVTITADKSTSTAYMELSSLRSEDTAVYYCARGAIYNGYDVLDNWGQGTLVTVSSGGGGSGGGGSGGGGSGGGGSDIQMTQSPSSLSASVGDRVTITCSASQDISNYLNWYQQKPGKAPKLLIYYTSNLHSGVPSRFSGSGSGTDFTLTISSLQPEDFATYYCQQYRKLPWTFGQGTKLEIKR
notes: also called BCMA-4NP control sample
B4: BCMA-4NP tool CAR (other, not shown: a dimerising Fc or GST)
chain: B3 scFv
notes: Tool CAR with humanized murine anti-BCMA scFv (VH and VL from WO2012/163805); also called 126021

What was measured:
BCMA-10 CAR = molecular target: T2, BCMA-10 CAR; test: CAR-expressing T cells incubated with recombinant BCMA-Fc; staining of CAR+ cells
T2 construct: also called 139109 Full CAR; EG63-98LB

BCMA-Fc antigen = molecular target: B1; test: flow cytometry of CAR-transduced JNL cells stained with BCMA-Fc antigen
Experimental: Jurkat-NFAT-luciferase (JNL) cells transduced with BCMA CAR constructs were evaluated for activation in response to BCMA-expressing target cell lines. Small-scale viral supernatant samples were generated in HEK293T cells for transduction of JNL cells. On Day 3 following transduction, BCMA CAR-transduced JNL cells were incubated with target cells at an effector-to-target (E:T) ratio of 6:1. Target cell lines were: K562-BCMA (engineered to stably express BCMA), K562 (parental line), and BCMA positive multiple myeloma cell lines, NCI-H929 and RPMI 8226. JNL activation was measured using Bright-Glo substrate (Promega) on Day 4. CAR expression on transduced JNL was assessed on Day 7 with BCMA-Fc antigen and Biotin-Protein L reagent (Table 7).

[1] = molecular target: T1, BCMA (recombinant, form not given); test: affinity assay, 1:1 binding fit; instrument and sample format not stated

**Q.** Does B1 bind (BCMA-10 CAR)?
**A.** binds

**Q.** For B2, which “% CAR+ (BCMA-Fc detection)” value (BCMA-Fc antigen) is on record?
**A.** 36.9%

**Q.** With B3 as the binder, how does the Kd [1] read?
**A.** 100 pM

**Q.** And the koff [1]?
**A.** 0.000172 s⁻¹

**Q.** What about the kon [1] of the same binder?
**A.** 1.58e+06 M⁻¹ s⁻¹

**Q.** For B4, which “% CAR+ (BCMA-Fc detection)” value (BCMA-Fc antigen) is on record?
**A.** 28.3%
